Test results reported in article PMC8125816, “Relative Importance of Soluble and Microsomal Epoxide Hydrolases for the Hydrolysis of Epoxy-Fatty Acids in Human Tissues” (International Journal of Molecular Sciences, 2021).

Columns and labels:
Experiment in all cases: LC/MS-MS of diol formed
Assay type in all cases: biochemical, Homo sapiens
LC/MS-MS of diol formed [1] = substrate: CC/C=C\C/C=C\CC1OC1C/C=C\C/C=C\C/C=C\CCC(=O)O; conditions: sodium phosphate 0.1 M pH 7.4, 0.1 mg/mL BSA, 37 °C, crude membrane extract
Excerpt: (§1) LC/MS-MS of diol formed on EH3

LC/MS-MS of diol formed [2] = substrate: CCCCC/C=C\C/C=C\CC1OC1C/C=C\CCCC(=O)O; conditions: sodium phosphate 0.1 M pH 7.4, 0.1 mg/mL BSA, 37 °C, crude membrane extract
Excerpt: as §1

LC/MS-MS of diol formed [3] = substrate: CCCCC/C=C\C[C@@H]1O[C@H]1/C=C/C(O)C/C=C\CCCC(=O)O; conditions: sodium phosphate 0.1 M pH 7.4, 0.1 mg/mL BSA, 37 °C, crude membrane extract
Excerpt: as §1

LC/MS-MS of diol formed [4] = substrate: CCCCCC1OC1C/C=C\C/C=C\C/C=C\CCCC(=O)O; conditions: sodium phosphate 0.1 M pH 7.4, 0.1 mg/mL BSA, 37 °C, crude membrane extract
Excerpt: as §1

LC/MS-MS of diol formed [5] = substrate: CC/C=C\C/C=C\CC1OC1C/C=C\C/C=C\C/C=C\CCC(=O)O; conditions: Tris/HCl 0.1 M pH 9.0, 0.1 mg/mL BSA, 37 °C
Excerpt: (§2) LC/MS-MS of diol formed on mEH

LC/MS-MS of diol formed [6] = substrate: CCCCC/C=C\C/C=C\CC1OC1C/C=C\CCCC(=O)O; conditions: Tris/HCl 0.1 M pH 9.0, 0.1 mg/mL BSA, 37 °C
Excerpt: as §2

LC/MS-MS of diol formed [7] = substrate: CCCCC/C=C\C[C@@H]1O[C@H]1/C=C/C(O)C/C=C\CCCC(=O)O; conditions: Tris/HCl 0.1 M pH 9.0, 0.1 mg/mL BSA, 37 °C
Excerpt: as §2

LC/MS-MS of diol formed [8] = substrate: CCCCCC1OC1C/C=C\C/C=C\C/C=C\CCCC(=O)O; conditions: Tris/HCl 0.1 M pH 9.0, 0.1 mg/mL BSA, 37 °C
Excerpt: as §2

B1: EH3 (Homo sapiens) (protein)
chain: MPELVVTALLAPSRLSLKLLRAFMWSLVFSVALVAAAVYGCIALTHVLCRPRRGCCGRRRSASPACLSDPSLGEHGFLNLKSSGLRLHYVSAGRGNGPLMLFLHGFPENWFSWRYQLREFQSRFHVVAVDLRGYGPSDAPRDVDCYTIDLLLVDIKDVILGLGYSKCILVAHDWGALLAWHFSIYYPSLVERMVVVSGAPMSVYQDYSLHHISQFFRSHYMFLFQLPWLPEKLLSMSDFQILKTTLTHRKTGIPCLTPSELEAFLYNFSQPGGLTGPLNYYRNLFRNFPLEPQELTTPTLLLWGEKDTYLELGLVEAIGSRFVPGRLEAHILPGIGHWIPQSNPQEMHQYMWAFLQDLLD
LC/MS-MS of diol formed [1]
  Km: 4.3 ± 1.2 µM
  Vmax: 0.121 µmol/min/mg
  kcat: 0.08 ± 0.01 s⁻¹
  kcat/Km: 19000 ± 3000 M⁻¹ s⁻¹
LC/MS-MS of diol formed [2]
  Km: 10 ± 0.5 µM
  Vmax: 0.044 µmol/min/mg
  kcat: 0.03 ± 0.001 s⁻¹
  kcat/Km: 3000 ± 200 M⁻¹ s⁻¹
LC/MS-MS of diol formed [3]
  Km: 14 ± 1 µM
  Vmax: 0.017 µmol/min/mg
  kcat: 0.014 ± 0.001 s⁻¹
  kcat/Km: 1010 ± 30 M⁻¹ s⁻¹
LC/MS-MS of diol formed [4]
  Km: 76 ± 16 µM
  Vmax: 0.027 µmol/min/mg
  kcat: 0.018 ± 0.003 s⁻¹
  kcat/Km: 240 ± 10 M⁻¹ s⁻¹

B2: mEH (Homo sapiens) (protein)
chain: MWLEILLTSVLGFAIYWFISRDKEETLPLEDGWWGPGTRSAAREDDSIRPFKVETSDEEIHDLHQRIDKFRFTPPLEDSCFHYGFNSNYLKKVISYWRNEFDWKKQVEILNRYPHFKTKIEGLDIHFIHVKPPQLPAGHTPKPLLMVHGWPGSFYEFYKIIPLLTDPKNHGLSDEHVFEVICPSIPGYGFSEASSKKGFNSVATARIFYKLMLRLGFQEFYIQGGDWGSLICTNMAQLVPSHVKGLHLNMALVLSNFSTLTLLLGQRFGRFLGLTERDVELLYPVKEKVFYSLMRESGYMHIQCTKPDTVGSALNDSPVGLAAYILEKFSTWTNTEFRYLEDGGLERKFSLDDLLTNVMLYWTTGTIISSQRFYKENLGQGWMTQKHERMKVYVPTGFSAFPFELLHTPEKWVRFKYPKLISYSYMVRGGHFAAFEEPELLAQDIRKFLSVLERQ
LC/MS-MS of diol formed [5]
  Km: 2.9 ± 0.4 µM
  Vmax: 0.445 µmol/min/mg
  kcat: 0.37 ± 0.01 s⁻¹
  kcat/Km: 130000 ± 20000 M⁻¹ s⁻¹
LC/MS-MS of diol formed [6]
  Km: 2.5 ± 0.6 µM
  Vmax: 0.038 µmol/min/mg
  kcat: 0.032 ± 0.002 s⁻¹
  kcat/Km: 13000 ± 1000 M⁻¹ s⁻¹
LC/MS-MS of diol formed [7]
  Km: 51 ± 14 µM
  Vmax: 0.023 µmol/min/mg
  kcat: 0.019 ± 0.003 s⁻¹
  kcat/Km: 370 ± 60 M⁻¹ s⁻¹
LC/MS-MS of diol formed [8]
  Km: 80 ± 6 µM
  Vmax: 0.053 µmol/min/mg
  kcat: 0.044 ± 0.003 s⁻¹
  kcat/Km: 550 ± 10 M⁻¹ s⁻¹
